Sequences and labels used below:
B1: hN1S3-083 (scFv, V domains shown)
VH: QVQLQQSGPGLVKPSQTLSLTCAISGDSISSSSATWNWIRQSPSRGLEWLGRTYYRSKWYNDYAVSVKSRITIDPDTSKNQFSLQLNSVTPEDTAVYYCARQLGGRIEFWGQGTLVTVSS
VL: QSVLTQPPSASGSPGRSVTISCTGTSRDVGAYNYVSWYQQHPGEAPKLLISEVTKRPSGVPARFSASKSGNTASLTISGLQAEDEGDYYCSSYAGSDSWVFGGGTKLTVL
notes: phage scFv
B2: N1wc13 (scFv, V domains shown)
VH: QVQLVQSGAEVKKPGASVKVSCKASGYNFTGYYMHWVRQAPGQGLEWMGWINPNSGGTNYAQKFQGRVTMTRETSISTAYMELSRLRSDDTAVYYCATDSFDYWGRGTMVTVSS
VL: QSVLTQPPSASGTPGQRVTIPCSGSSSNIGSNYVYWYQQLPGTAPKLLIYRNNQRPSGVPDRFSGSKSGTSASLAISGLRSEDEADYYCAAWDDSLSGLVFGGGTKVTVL
notes: phage scFv
B3: hN1S3-141 (scFv, V domains shown)
VH: QVQLVQSGAEVKKPGASVKVSCKASGYNFTGYYIHWVRQAPGQGLEWMGWINPNSGGTNYAQKFQGRVIMTRDTSISTAYMELSRLRSDDTAVYYCATDSFDYWGRGTLVTVSS
VL: QSVLTQPPSASGTPGQRVTISCSGSYSNIGSNYVYWYQQFPGTAPKLLIYTNNQRPSGVPDRFSGSKSGSSASLAISGLRSEDEADYYCAAWDDSVGVLLFGGGTKLTVL
notes: phage scFv
B4: N1wc225 (scFv, V domains shown)
VH: QVQLQQSGAEVKKPGASVKVSCKASGYNFTGYYMHWVRQAPGQGLEWMGWINPNSGGTNYAQKFQGRVTMTRDTSISTAYMELSRLRSDDTAVYYCATDSFDYWGRGTMVTVSS
VL: QSVVTQPPSVSGAPGQRVTISCTGSSSNIGAGYDVHWYQQLPGTAPKLLIYGNSNRPSGVPDRFSGSKSGTSASLAITGLQAEDEADYYCQSYDSSLSGSVFGGGTKLTVL
B5: N1wc79 (scFv, V domains shown)
VH: QVQLQQSGAEVKKPGASVKVSCKASGYNFTGYYMHWVRQAPGQGLEWMGWINPNSGGTNYAQKFQGRVTMTRDTSISTAYMELSRLRSDDTAVYYCATDSFDYWGQGTMVTVSS
VL: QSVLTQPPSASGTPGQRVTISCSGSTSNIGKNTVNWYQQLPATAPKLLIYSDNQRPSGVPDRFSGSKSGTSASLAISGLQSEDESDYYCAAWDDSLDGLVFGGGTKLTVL
notes: phage scFv
B6: hN1S3-184 (scFv, V domains shown)
VH: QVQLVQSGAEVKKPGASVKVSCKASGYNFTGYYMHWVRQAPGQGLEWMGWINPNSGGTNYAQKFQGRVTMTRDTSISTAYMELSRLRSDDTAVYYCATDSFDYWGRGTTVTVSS
VL: QSVLTQPPSASGTPGQRVTISCSGSSSNIGGNYVYWYQQLPGTAPKLLIYRSNQRPSGVPDRFSGSKSGTSASLAISGLRSEDEADYYCAAWDDSLHGVIFGGGTKLTVL
notes: phage scFv
B7: N1wc130 (scFv, V domains shown)
VH: QVQLQQSGAEVKKPGASVKVSCKASGYNFTGYYMHWVRQAPGQGLEWMGWINPNSGGTNYAQKFQGRVTMTRDTSISTAYMELSRLRPDDTAVYYCATDSFDYWGKGTMVTVSS
VL: QAVLTQPSSVSGAPGQRVTISCTGTGSNIGAGYDVHWYQQLPGTAPKLLIYANTNRPSGVPDRFSGSKSGTSASLAITGLQAEDEADYYCQSYDSSLSGSVFGGGTKVTVL
notes: phage scFv
B8: hN1S3-035 (scFv, V domains shown)
VH: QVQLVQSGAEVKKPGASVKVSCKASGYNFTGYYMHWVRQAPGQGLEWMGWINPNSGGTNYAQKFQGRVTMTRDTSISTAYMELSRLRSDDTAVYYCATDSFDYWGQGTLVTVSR
VL: QAVLTQPSSVSGAPGQRVTISCTGSSSNIGAGYDVHWYQQLPGTAPKLLIYGNSNRPSGVPDRFSGSKSGTSASLAITGLQAEDEADYYCQSYDSSLSGSVFGGGTKVTVL
notes: phage scFv
B9: hN1S3-077 (scFv, V domains shown)
VH: EVQLVQSGAEVKKPGAPVKVSCKTSGYGFSNYYMHWVRQAPGQGLEWLGMINPSDGSQHFAQRFRDRVSFTSDTSTSAVYMELAGLRSDDTAVYYCAREKANSMYFDYWGQGTLVTVSS
VL: QSVVTQPPSLSAAPGQRVTISCSGSHSNIGNFYVSWYQQVPGAAPKLLIYDNNERPSGIPDRFSGSKSGTSATLDITGLQTGDEADYYCSTWDRSLSASVFGSGTKLTVL
notes: phage scFv
B10: hN1S3-147 (scFv, V domains shown)
VH: QVQLVQSGPEVKKPGTSVKVSCKASGFTFTSSAVQWVRQARGQRLEWIGWIVVGSGNTNYAQKFQERVTITRDMSTSTAYMELSSLRSEDTAVYYCVADTVYWGKGTLVTVSS
VL: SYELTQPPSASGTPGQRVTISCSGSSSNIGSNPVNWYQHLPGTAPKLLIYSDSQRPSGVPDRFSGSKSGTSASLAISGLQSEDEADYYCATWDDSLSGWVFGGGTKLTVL
notes: phage scFv
B11: hN1S3-133 (scFv, V domains shown)
VH: QVQLVQSGPEVKKPGTSVKVSCKASGFTFTSSAVQWVRQARGQRLEWIGWIVVGSGNTNYAQKFQERVTITRDMSTSTAYMELSSLRSEDTAVYYCVADTVYWGQGTLVTVSS
VL: QSVLTQPPSVSEAPRQRVTISCSGSSSNIGNNAVNWYQQLPGEAPKLLIYYDDLLPSGVSDRFSGSKSGSSASLAISGLQAEDEADYYCATWDDSLNAWVFGGGTKVTVL
notes: phage scFv
B12: hN1S3-082 (scFv, V domains shown)
VH: QVQLVQSGPEVKKPGTSVKVSCKASGFTFTSSAVQWVRQARGQRLEWIGWIVVGSGNTNYAQKFQERVTITRDMSTSTAYMELSSLRSEDTAVYYCVADTVYWGRGTLVTVSS
VL: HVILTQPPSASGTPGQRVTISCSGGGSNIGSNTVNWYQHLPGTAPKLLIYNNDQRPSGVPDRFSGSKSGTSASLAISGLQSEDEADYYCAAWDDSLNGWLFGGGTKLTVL
notes: phage scFv
B13: N1wc157 (scFv, V domains shown)
VH: QVQLVQSGAGLKRPGTSVKISCKTSGYIFSQYPMHWVRQAPGQGLEWVAWVDTGNGTTRYSPNFQGRATVSGDTSANTGYLELRSLRFTDTAVYYCATNAFDYWGRGTLVTVSS
VL: SYELTQPPSVSVSPGQTARITCSGDALPDKYVHWYQQKSGQAPVLVLFDDSKRPSGIPERFSGSSSGTVATLIISGAQVEDEGDFFCYSTDSSGNERVFGGGTKLTVL
notes: phage scFv
B14: N1wc160 (scFv, V domains shown)
VH: QVQLQESGAEVKKPGASVKVSCKASGYNFTGYYMHWVRQAPGQGLEWMGWINPNSGGTNYAQKFQGRVTMTRDTSISTAYMELSRLRSDDTAVYYCATDSFDYWGRGTMVTVSS
VL: SYVLTQPPSASGTPGQRVTISCSGSSSNIGSNTVHWYQQLPETAPKLLIYTNNQRPSGVPDRFSGSKSGTSASLAISGLQSEDEADYYCASWDDSLKAYVFGTRTKLTVL
notes: phage scFv
B15: N1wc202 (scFv, V domains shown)
VH: EVQLVQSGAEVKKPGASVKVSCKASGYNFTGYYMHWVRQAPGQGLEWMGWINPNSGGTNYAQKFQGRVTMTRDTSISTAYMELSRLRSDDTAVYYCATDSFDYWGRGTLVTVSS
VL: SYELTQPPSVSGTPGQRVTISCSGSSSNIESNAVHWYQHLPGRAPKLLIFSHNQRPSGVPARFSGSKSGTSASLAISGLQSEDEADYYCAAWDDSLSGYVFASGTKLTVL
notes: phage scFv
B16: N1wc520 (scFv, V domains shown)
VH: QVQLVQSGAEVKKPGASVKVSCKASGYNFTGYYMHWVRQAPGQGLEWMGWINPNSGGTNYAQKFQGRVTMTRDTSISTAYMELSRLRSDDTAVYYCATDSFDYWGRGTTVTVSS
VL: SYVLTQPPSVSGTPGQRVTISCSGSSSNIESNAVHWYQHLPGRAPKLLIFSHNQRPSGVPARFSGSKSGTSASLAISGLQSEDEADYYCAAWDDSLSGYVFASGTKVTVL
notes: phage scFv
B17: N1wc625 (scFv, V domains shown)
VH: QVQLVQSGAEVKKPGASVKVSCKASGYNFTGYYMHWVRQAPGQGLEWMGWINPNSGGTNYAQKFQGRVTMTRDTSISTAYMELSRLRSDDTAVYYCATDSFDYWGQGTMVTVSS
VL: QSVLTQPPSASGTPGQRVTISCSGGRSNIGTNYVYWYQKLPGTAPKSLIYTTNQRPSGVPDRFSGSKAGTSASLAISGLRSEDEGDYYCASWDESLNGVVFGGGTKVTVL
notes: phage scFv
B18: N1wc175 (scFv, V domains shown)
VH: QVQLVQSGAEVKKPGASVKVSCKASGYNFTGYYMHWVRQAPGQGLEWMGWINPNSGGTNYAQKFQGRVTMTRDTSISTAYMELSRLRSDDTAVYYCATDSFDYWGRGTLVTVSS
VL: QSVLTQPPSASGTPGQRVTISCSGSRSSIGSNTVSWYQQLPGTAPKLIIYTNNQRPSGVPDRFSGSKSGTSATLAISGLQSEDEADYYCASWDDSLNDYVFGVGTKVTVL
notes: phage scFv

Experimental findings from US20110286916A1 (published 2011) are described below.

The target of the first test is T1, human full-length Notch3 with C-terminal FLAG tag, stably expressed on 293 FlpIn (TREx) cells (human, UniProt Q9UM47 40-2321).
T1 construct: whole, on cells; made by the same strategy as the Notch1 line; also called 293-N3; hN3
Put plainly: FACS, phage scFv.
B1: the binding result was “binds”.

For B2, the binding result was “binds”.

As for B3, the binding result is recorded as “binds”.

For the molecule B4, the binding result is reported as “binds”.

Consider B5, for which the binding result is given as “binds”.

For the molecule B6, the binding result is “binds”.

Take B7: the binding result is recorded as “binds”.

As to B8, the binding result is “binds”.

In the case of B9, the binding result is reported as “binds”.

For B10, the binding result was “binds”.

With B11, the binding result was “binds”.

B12: the binding result is recorded as “binds”.

The next test addresses T2, human full-length Notch1 with C-terminal FLAG tag, stably expressed on 293 FlpIn (TREx) cells (human, UniProt P46531 19-2555).
T2 construct: tetracycline/doxycycline-induced expression from pcDNA5/FRT/TO-HN1+FLAG; also called hN1; 293_N1
Put plainly: FACS, phage scFv.
Take B13: the binding result was “binds”.

For B14, the binding result was “binds”.

On to B15, for which the binding result was “binds”.

Consider B16, for which the binding result is on record as “binds”.

As for B17, the binding result is listed as “binds”.

As for B18, the binding result is reported as “binds”.
